Paper PMC6028546, “Control of mitotic chromosome condensation by the fission yeast transcription factor Zas1”
One block for each molecule: values may come before it.

How the values were obtained:
[1] = target: Zas1 (recombinant, from the short zas1 cDNA ORF) (S. pombe); experiment: SEC-MALS; analytical SEC coupled to multiangle light scattering of purified Zas1; two independent chromatography runs
[2] = target: T1, Zas1 (short cDNA ORF, two zinc fingers) (Schizosaccharomyces pombe, UniProt Q9UTS5-2 1-845); experiment: EMSA; 20 uM ZnCl2, 5 mM MgCl2; EMSA: 10 mM Tris-HCl pH 8.0, 125 mM NaCl, 5 mM MgCl2, 20 uM ZnCl2; 400 nM DNA, 0/200/400/800 nM Zas1; 90 min on ice; 1.8% agarose, Tris-acetate pH 8.7, 6 C; conditions: protein: recombinant; chain copies: 2; label: 5' 6-FAM on strand 1; blunt
T1 sequence: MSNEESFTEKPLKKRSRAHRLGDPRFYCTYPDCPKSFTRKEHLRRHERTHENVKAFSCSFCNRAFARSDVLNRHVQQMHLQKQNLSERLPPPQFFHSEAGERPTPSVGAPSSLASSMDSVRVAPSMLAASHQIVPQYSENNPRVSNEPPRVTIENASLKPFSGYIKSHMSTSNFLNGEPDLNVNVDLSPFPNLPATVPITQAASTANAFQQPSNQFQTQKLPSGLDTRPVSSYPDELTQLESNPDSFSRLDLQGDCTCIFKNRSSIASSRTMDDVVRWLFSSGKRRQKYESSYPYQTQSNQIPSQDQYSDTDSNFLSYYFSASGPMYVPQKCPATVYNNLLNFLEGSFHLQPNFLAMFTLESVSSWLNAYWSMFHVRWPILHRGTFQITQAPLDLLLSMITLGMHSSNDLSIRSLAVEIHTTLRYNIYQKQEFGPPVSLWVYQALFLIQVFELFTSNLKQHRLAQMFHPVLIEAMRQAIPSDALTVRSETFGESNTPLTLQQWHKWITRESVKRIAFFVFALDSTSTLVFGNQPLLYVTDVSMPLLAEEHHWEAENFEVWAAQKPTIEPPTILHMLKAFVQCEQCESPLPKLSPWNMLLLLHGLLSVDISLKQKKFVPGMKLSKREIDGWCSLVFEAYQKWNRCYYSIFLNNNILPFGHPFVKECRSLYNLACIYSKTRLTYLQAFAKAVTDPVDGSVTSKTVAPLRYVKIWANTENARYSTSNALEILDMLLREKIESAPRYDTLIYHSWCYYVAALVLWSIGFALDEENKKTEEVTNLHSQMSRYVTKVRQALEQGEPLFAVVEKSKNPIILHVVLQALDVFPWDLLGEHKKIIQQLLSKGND

stoichiometry N [1]: 2
Molecule: Zas1 (recombinant, from the short zas1 cDNA ORF) (natural protein)

B1: Ppob1 (dsDNA)
DNA 1: AAAGCCCCCACGAAGGTCGTCTTTCCCCACATAGATTATT
DNA 2: AATAATCTATGTGGGGAAAGACGACCTTCGTGGGGGCTTT
binding result [2]: binds

B2: Pcnd1 (dsDNA)
DNA 1: AATGGACCCCCACACAGGACATATAGGTGGGGTTATTGT
DNA 2: ACAATAACCCCACCTATATGTCCTGTGTGGGGGTCCATT
binding result [2]: binds
